Laboratory results as given in US5882644A, “Monoclonal antibodies specific for the platelet derived growth factor β receptor and methods of use thereof” (Protein Design Labs, Inc., priority 1996, dated 1999).
Substitutions are numbered along the chain they refer to. Entries after “also recorded” stand apart in the source; their conditions may differ.

B1: muM4TS.22 (antibody, V domains shown)
VH: QVQLKESGPGLVAPSQSLSITCTVSGFSLTNYAINWVRQPPGQGLEWLGIIWTGGGTSYNSALKSRLSISKDNSKSQVFLKMNSLQTDDTARYYCARTGTRGYFFDYWGQGTTLTVSS
VL: DIQMNQSPSSLSASLGDTITITCHASQNINVWLSWYQRKPGNIPKLLIYKASNLHTGVPSRFSGSGSGTGFTLTISSLQPEDIATYYCQQGQSFPFTFGSGTKLEIK
B2: HuM4TS.22 (antibody, V domains shown)
VH: QVQLQESGPGLVKPSETLSLTCTVSGFSLTNYAINWVRQPPGKGLEWLGIIWTGGGTSYNSALKSRLTISKDTSKNQVSLKLSSVTAADTAVYYCARTGTRGYFFDYWGQGTLVTVSS
VL: B1 VL with N5T, L15V, T18R, I19V, R38Q, N42K, I43A, S100G, L104V
B3: HuM4TS.11 (antibody, V domains shown)
VH: QVQLVQSGAEVKKPGASVKVSCKASGYTFTNCWMHWVRQAPGQGLEWIGYINPTTGYSEYNQNFKDKATITADKSTSTAYMELSSLRSEDTAVYYCTSNYGHYDWFGNWGQGTLVT
VL: DIQMTQSPSSLSASVGDRVTITCRASESVDSYGNSFMHWYQQKPGKAPKLLIYRASNLESGIPSRFSGSGSRTDFTLTISSLQPEDVATYYCQQSNEDPPTFGQGTKVEIK
B4: HuM4TS.11(gamma1): same variable domains as HuM4TS.11 but a gamma1 rather than gamma4 heavy chain constant region (antibody, V domains shown)
VL: B3 VL
VH: B3 VH
B5: HuM4TS.11.2: HuM4TS.11 version in which a few additional human framework residues were changed to their murine counterparts (antibody, V domains shown)
VL: B3 VL with Q3V, M4L, S69G
VH: B3 VH with R38K, A40R, I70L, M81I
B6: muM4TS.22: murine monoclonal antibody to PDGF-R β, variable regions SEQ ID NOS:2 and 4; epitope in third extracellular domain (antibody, V domains shown)
VL: MRVLAELLGLLLFCFLGVRCDIQMNQSPSSLSASLGDTITITCHASQNINVWLSWYQRKPGNIPKLLIYKASNLHTGVPSRFSGSGSGTGFTLTISSLQPEDIATYYCQQGQSFPFTFGSGTKLEIK
VH: MAVLALLLCLVTFPSCALSQVQLKESGPGLVAPSQSLSITCTVSGFSLTNYAINWVRQPPGQGLEWLGIIWTGGGTSYNSALKSRLSISKDNSKSQVFLKMNSLQTDDTARYYCARTGTRGYFFDYWGQGTTLTVSS

Tests used:
[1] = biological target: T1, PDGF-R β expressed on transfectant cells (CHO PDGF-R β transfectants, CHO C4 line); Sp2/0 PDGF-R β … (human, UniProt P09619); assay: competition with 125I-labeled muM4TS.22 on Sp2/0 PDGF-R β transfectant cells
Experimental: Figure 5: FIG. 5 is a graph depicting competitive binding of muM4TS.22 (closed circles) and HuM4TS.22 (open circles). Increasing concentrations of cold competitor antibodies were incubated with the Sp2/0 transfectants expressing PDGF-R β in the presence of radiolabeled tracer muM4TS.22, and the ratio of bound/free radioactivity determined. The results shown are mean values of triplicate samples.
(§1) To assess the ability of HuM4TS.22 to compete with muM4TS.22 for receptor binding, increasing concentrations of the two antibodies were respectively incubated on ice for one hour with Sp2/0 PDGF-R β transfectant cells and a fixed amount of tracer ^125I-labeled muAb. The sample tubes were processed as in the blocking experiment just described. MuM4TS.22 and HuM4TS.22 competed with equal efficiencies (FIG. 5).

[2] = biological target: T1, PDGF-R β expressed on transfectant …; assay: competition with 125I-labeled M4TS.11 on Sp2/0 PDGF-R β transfectant cells
Experimental: Figure 11: FIG. 11 is a graph depicting competitive binding of muM4TS.11 (closed squares) and HuM4TS.11 (open squares) and HuM4TS.11(gamma 1) (open diamonds). Increasing concentrations of cold competitor antibodies were incubated with the Sp2/0 transfectants expressing PDGF-R β in the presence of radiolabeled tracer muM4TS.11, and the ratio of bound/free radioactivity determined. The results shown are mean values of triplicate samples.
(§2) To assess the ability of HuM4TS.11 to compete with the muAb for receptor binding, increasing concentrations of the two antibodies were respectively incubated on ice for one hour with Sp2/0 PDGF-R β transfectant cells and a fixed amount of tracer ^125I-labeled M4TS.11. The sample tubes were processed as in the blocking experiment described. HuM4TS.11 competed less well than muM4TS.11 (FIG. 11).

[3] = system: CHO transfectant cell line expressing PDGF-R β (CHO C4); assay: Inhibition of PDGF BB-induced proliferation (3H-thymidine) of CHO C4 cells; format: cell-based, Chinese hamster
Experimental: To determine the ability of muM4TS.11 and muM4TS.22 to block PDGF-mediated proliferation, a CHO transfectant cell line expressing PDGF-R β (CHO C4) was generated, as described above. Proliferation of this line, as measured by incorporation of ^3 H-thymidine by DNA synthesis, is stimulated several-fold by PDGF BB. The CHO PDGF-R β transfectants were plated in a 96-well tissue culture plate at about 50,000 cells/well in Ham's F-12+10% FCS and incubated for 1-2 days. The medium was removed, and the cells were washed once with serum-free medium (Ham's F-12+1 mg/ml BSA) and incubated in this media for 1-2 days to put them in a quiescent state. The appropriate amount of antibody in serum-free medium was added, and after 1-3 hours, 50 ng/ml PDGF BB was added. After overnight incubation, 1 μCi ^3 H-thymidine was added, and after a final 4 hour incubation, the cells were harvested using a PHD cell harvester (Cambridge Technology) and analyzed with a scintillation counter.

[4] = system: PDGF-R β; assay: Competition with 125I-labeled murine antibody tracer on Sp2/0 PDGF-R β transfectant cells; format: binding, human; conditions: Sp2/0 PDGF-R β transfectants; for binding affinity Ka: calculated from competitive binding data
Experimental: as §1, with “^125 I-labeled” for “^125I-labeled”, “described.” for “described. MuM4TS.22 and HuM4TS.22 competed with equal efficiencies (FIG. 5).”
as §2, with “^125 I-labeled” for “^125I-labeled”, “[…] The binding affinities calculated from the data were: Ka =5×10^8 M^-1 for the muAb and 3×10^7 M^-1 for the HuAb.” for “HuM4TS.11 competed less well than muM4TS.11 (FIG. 11).”

[5] = system: human primary fibroblast cell line AG1523B; assay: Inhibition of PDGF BB-stimulated proliferation of AG1523B fibroblasts; format: cell-based; conditions: 300 ng/ml PDGF BB
[6] = system: PDGF-R β; assay: Competitive binding with 125I-PDGF BB on transfectant cells expressing PDGF-R β; parameters: species or system human; conditions: 4° C.
Experimental: To determine the ability of muM4TS.11 and muM4TS.22 to block binding of PDGF BB to PDGF-R β, the following competitive binding experiments were performed. Transfectant cells expressing PDGF-R β were harvested, washed twice with cold DMEM, and resuspended at 10^6 cells/ml in DMEM. The assay was carried out in triplicate by incubating 100 μl of the cell suspension with either: 1) no antibody (to determine total binding); 2) varying concentrations of antibody; or 3) 100 ng cold PDGF BB (to saturate specific binding sites and determine non-specific binding) for 15 minutes at 4° C. Each sample received 1.0 ng ^125 I-labeled PDGF BB, and was incubated for an additional 60 min at 4° C. Unbound ^125 I-labeled PDGF BB was separated from that bound to the cell by layering the sample over a mixture of 80% dibutylphthalate, 20% olive oil in a microfuge tube, and microfuging briefly to pellet the cells through the oil mixture. The tubes were placed in dry ice to freeze the contents, the tip of the tube containing the cell pellet was cut off into a vial, and radioactivity was determined in a gamma counter.
To assess the ability of HuM4TS.22 to block the binding of PDGF BB to its receptor, competitive binding experiments of HuM4TS.22 with ^125 I-PDGF BB were performed according to the method described in Example 3.
To assess the ability of muM4TS.11 and HuM4TS.11 to block the binding of PDGF BB to the PDGF β receptor, competitive binding experiments of these antibodies with ^125 I-PDGF BB were performed according to the method described in Example 3.

[7] = system: PDGF-R β expressed on the cell membrane; assay: Flow cytometry binding to CHO PDGF-R β transfectant cells; parameters: species or system human; conditions: 0.1-1 μg/ml antibody; CHO PDGF-R β transfectants vs untransfected CHO
Experimental: The cells were washed once in cold PBS and resuspended in 50 μl of PBS containing 10 μg/ml FITC-conjugated goat anti-mouse IgG and incubated for 30 min. After another wash, the cells were fixed by resuspension in 0.25 ml of paraformaldehyde in PBS, and analyzed for fluorescence by flow cytometry on a FACScan (Becton Dickinson).

[8] = system: PDGF-R β deletion fusion proteins; assay: ELISA epitope mapping with PDGF-R β deletion fusion proteins; format: binding, human
Excerpt: To localize the binding sites of the M4TS antibodies on the PDGF-R, a series of PDGF-R β deletion mutants, each consisting of one or more adjacent domains of the extracellular portion of the receptor, was constructed by standard methods including PCR. The deletion constructs were each cloned into an expression plasmid (FIG. 13A) where they were fused to the constant region of the human lambda-1 immunoglobulin light chain, to facilitate detection in ELISA. The constructs were as follows (see FIG. 13B):
These PDGF-R β deletion fusion proteins were transiently expressed, by transfecting 10 μg of the respective expression plasmids into approximately 10^7 S194 mouse myeloma cells (ATCC TIB 19) using the DEAE-dextran method in accordance with the method described by Queen et al. (1984) Mol. Cell. Biol. 4:1042. After the transfected cells had died (4-5 days) and been removed by centrifugation, the culture supernatants containing the PDGF-R β deletion proteins were used in ELISA assays, 100 μl/well. First, the relative levels of the various PDGF-R β deletion proteins were measured in an ELISA where the plate was coated with goat anti-human lambda antibody (Tago) and the proteins detected with HRP-conjugated goat anti-human lambda antibody. […] To determine the ability of the antibodies to bind to each deletion protein, an ELISA was performed in which goat anti-human lambda antibody was used to coat the plate, followed by the cell supernatant and then 0.1 μg of the appropriate antibody, and then bound antibody detected with HRP-conjugated goat-anti-mouse Ig or goat-anti-human Ig antibody as appropriate (Tago). As a positive control, purified soluble PDGF-R β (Example 1) was coated directly on certain wells of the plate (denoted D1-5 in FIG. 14).

| Molecule | Ka [1] [M⁻¹] | inhibition of PDGF-mediated proliferation compared with another antibody [3] | competition with labeled murine antibody for receptor binding / binding affinity, in words [4] | binding affinity Ka [4] [M⁻¹] | other results |
| --- | --- | --- | --- | --- | --- |
| B1 | 2.6e+08 | – | – | – | – |
| B2 | 4e+08 | – | – | – | – |
| B3 | – | – | – | – | Ka [2]: 3e+07 M⁻¹ |
| B4 | – | about equally well | higher binding affinity than HuM4TS.11 | 1.6e+08 | – |
| B5 | – | the same level of inhibition of PDGF-stimulated cell proliferation as does HuM4TS.11 | the same binding characteristics for PDGF-R β | – | – |
| B6 | – | – | competed with equal efficiencies | 2.6e+08 | inhibition of PDGF BB-induced proliferation ([3]; 50 ng/ml PDGF BB, sufficient antibody concentration): completely inhibited proliferation of the cells induced by PDGF BB; also recorded: almost completely inhibited the stimulation of proliferation by PDGF BB; inhibition of stimulation of proliferation by PDGF BB [5]: effectively inhibited the stimulation of proliferation by PDGF BB; blocking of 125I-PDGF BB binding to PDGF-R β [6]: competitively blocked binding of PDGF BB to PDGF-R β; also recorded: did have the ability to block binding of PDGF BB to PDGF-R β; specific binding to membrane PDGF-R β by flow cytometry [7]: specifically bound to CHO PDGF-R β transfectant cells but not to untransfected CHO cells; binding to deletion proteins containing only first through second domains ([8]; 0.1 μg antibody): do not bind; binding to protein D1-3 ([8]; 0.1 μg antibody): do bind to protein D1-3; binding to protein D3 (third domain only) ([8]; 0.1 μg antibody): bind to the protein D3; binding to protein D5 (fifth domain only) ([8]; separate experiment): none of muM4TS.11 and HuM4TS.11, muM4TS.22 and HuM4TS.22 bound to it |
